Drawing on the RNAGym collection of RNA variant scans (doi:10.7554/elife.80360), this text covers self-cleavage for 38 variants.

B1: Hairpin Ribozyme (parent)
chain: GUCCUCUUUCACGUGCGCGUGAAAGAGAGAAGUGAACCAGAGAAACACACGUUGUGGUAUAUUACCUGGUA

The variants in this series derive from B1. Kind of series: self-cleavage, relative activity (ratio to wild type); higher = more cleavage; co-transcriptional.
For the variant GUCCUCUUUCACGUGAGCUUGAAAGAGAGAAGUGAACCAGAGAAACACACGUUGUGGUAUAUUACCUGGUA [C16A G19U], the self-cleavage was determined as 0.862.

GUCCUCUUUCACGUUCGCGUGAAAGAGAGAAGUGAACCAGAGAAACACACGUUGUGGUAUAUUACCUGGGA [G15U U70G]: the self-cleavage turned out to be 0.873.

Take GUCCUCUUUCACGUGAGCGUGAAAGAGAGAAGUGAACCAGAGAAACACACGUUGCGGUAUAUUACCUGGUA [C16A U55C]: the self-cleavage amounted to 0.288.

Turning to GUCCUCUUUCACGUGGGCGUGAAAGAGAGAAGUGGACCAGAGAAACACACGUUGUGGUAUAUUACCUGGUA [C16G A35G], the self-cleavage amounted to 0.797.

Regarding GUCCUCUUUCACGUGAGCGUGAAAGAGAGAAGUGAACCAGAGAAACACACGUUGUGGUAUAUUACAUGGUA [C16A C66A], the self-cleavage was 0.108.

In the case of GUCCUCUUUCACGUUCGCGUGAAAGAGAGAAGUGAACCAGAGAAACACACGUUGUGGUAUAUCACCUGGUA [G15U U63C], the self-cleavage was determined as 0.14.

For the variant GUCCUCUUUCACGUUCGCGUGAAAGAGAGAAGUGAACCAGAGAAACACACGUUGUGGUAUAUGACCUGGUA [G15U U63G], the self-cleavage is 0.108.

On to GUCCUCUUUCACGUGAGCGUGAAAGCGAGAAGUGAACCAGAGAAACACACGUUGUGGUAUAUUACCUGGUA [C16A A26C], for which the self-cleavage was 0.488.

As to GUCCUCUUUCACGUGGGCGUGAAAGAGAGAAGUGAACCAGAGAAACACACGUUGUGGUAUAUUACCUGGUA [C16G], the self-cleavage was determined as 0.774.

In the case of GUCCUCUUUCACGUGAGCGUGAAAGAGAGAAGUGAACCAGAGAAACACACGUUGUGGUAUAUUACCUGGUA [C16A], the self-cleavage stood at 0.903.

GUCCUCUUUCACGUGGGCGUGAGAGAGAGAAGUGAACCAGAGAAACACACGUUGUGGUAUAUUACCUGGUA [C16G A23G]: the self-cleavage came to 0.751.

As for GUCCUCUUUCACGUGAGCGUGAAAGAGAGAAGUGAACCAGAGAAAAACACGUUGUGGUAUAUUACCUGGUA [C16A C46A], the self-cleavage is 0.197.

Take GUCCUCUUUCACGUGAGCGUGAAAGAGAGAAGUGAACCAGAGAAAGACACGUUGUGGUAUAUUACCUGGUA [C16A C46G]: the self-cleavage was 0.143.

Turning to GUCCUCUUUCACGUGGGCGUGAAAGAGGGAAGUGAACCAGAGAAACACACGUUGUGGUAUAUUACCUGGUA [C16G A28G], the self-cleavage was 0.959.

With GUCCUCUUUCACGUGGGCGUGAAAGAGUGAAGUGAACCAGAGAAACACACGUUGUGGUAUAUUACCUGGUA [C16G A28U], the self-cleavage worked out at 0.483.

For the variant GUCCUCUUUCACGUGAGCGUGAAAGAGAGAAGUGAACCAGAGAAACACACUUUGUGGUAUAUUACCUGGUA [C16A G51U], the self-cleavage is 0.861.

Take GUCCUCUUUCACGUGAGCGUGACAGAGAGAAGUGAACCAGAGAAACACACGUUGUGGUAUAUUACCUGGUA [C16A A23C]: the self-cleavage is 0.983.

With GUCCUCUUUCACGUGAGCGUGAAAGAGAGAAGUGAACCAGAGAAACACAAGUUGUGGUAUAUUACCUGGUA [C16A C50A], the self-cleavage is 0.361.

On to GUCCUCUUUCACGUGAGCGUGAAAGAGAGAAGUGAACCAGAGAAACACAUGUUGUGGUAUAUUACCUGGUA [C16A C50U], for which the self-cleavage worked out at 0.309.

Consider GUCCUCUUUCACGUUCGCGUGAAAGAGAGAAGUGAACCAGAGAAACACACGUGGUGGUAUAUUACCUGGUA [G15U U53G], for which the self-cleavage came to 0.645.

For the variant GUCCUCUUUCACGUGAGCGUGAAAGAGAGAAGUGAAUCAGAGAAACACACGUUGUGGUAUAUUACCUGGUA [C16A C37U], the self-cleavage was 0.519.

On to GUCCUCUUUCACGUGAGCGUGAAAGAGAGAAGUGAACCAGAGAAACACACGUUGUGGUAUAUUACCUGCUA [C16A G69C], for which the self-cleavage worked out at 0.205.

Take GUCCUCUUUCACGUGAGCGUGAAAGAGAGAAGUGAACCAGACAAACACACGUUGUGGUAUAUUACCUGGUA [C16A G42C]: the self-cleavage was 0.304.

As to GUCCUCUUUCACGUGAGCGUGAAAGAGAGAAGUGAACCAGAGAUACACACGUUGUGGUAUAUUACCUGGUA [C16A A44U], the self-cleavage came out at 0.133.

In the case of GUCCUCUUUCACGUGAGCGUGAAAGAGAGAAGUGAACCGGAGAAACACACGUUGUGGUAUAUUACCUGGUA [C16A A39G], the self-cleavage worked out at 0.243.

Consider GUCCUCUUUCACGUGAGCGUGAAAGAGAGAAGUGAACCUGAGAAACACACGUUGUGGUAUAUUACCUGGUA [C16A A39U], for which the self-cleavage was found to be 0.364.

Consider GUCCUCUUUCACGUGAGCGUGAAAGAGAGAAGUGAACCAGAGAAACACACGUUGUGGUAUAUUAUCUGGUA [C16A C65U], for which the self-cleavage is 0.242.

As to GUCCUCUUUCACGUGAGCGUGAAAGAGAGAAGUGAACCAGAGAAACACACGUAGUGGUAUAUUACCUGGUA [C16A U53A], the self-cleavage was 0.936.

As to GUCCUCUUUCACGUGAGCGUGAAAGAGAGAAGUGAACCAGAGAAACACACGUGGUGGUAUAUUACCUGGUA [C16A U53G], the self-cleavage was found to be 0.877.

On to GUCCUCUUUCACGUGAGCGUGAAAGAGAGAAGUGAACCAGAGAAACACACGUUGUGGUAUAUAACCUGGUA [C16A U63A], for which the self-cleavage stood at 0.132.

Turning to GUCCUCUUUCACGUGAGCGUGAAAGAGAGAAGUGAACCAGAGAAACACACGUUGUGGUAUAUGACCUGGUA [C16A U63G], the self-cleavage came to 0.253.

As for GUCCUCUUUCACGUGAGCGUGAAAGAGAGAAGUGAACCAGAGAAACACACGUUGUGGUAUAUUGCCUGGUA [C16A A64G], the self-cleavage came out at 0.455.

In the case of GUCCUCUUUCACGUGAGCGUGAAAGAGAGAAGUGAACGAGAGAAACACACGUUGUGGUAUAUUACCUGGUA [C16A C38G], the self-cleavage came out at 0.114.

Turning to GUCCUCUUUCACGUGAGCGCGAAAGAGAGAAGUGAACCAGAGAAACACACGUUGUGGUAUAUUACCUGGUA [C16A U20C], the self-cleavage amounted to 0.956.

GUCCUCUUUCACGUGAGCGUGAAAGAGAGAGGUGAACCAGAGAAACACACGUUGUGGUAUAUUACCUGGUA [C16A A31G]: the self-cleavage came to 0.536.

On to GUCCUCUUUCACGUUCGCGUGAAAGAGAGAAGUGAACCAGAGAAACACACGUUGUGGUAAAUUACCUGGUA [G15U U60A], for which the self-cleavage is 0.932.

For GUCCUCUUUCACGUUCGCGUGAAAGAGAGAAGUGAACCAGAGAAACACACGUUGUGGUAGAUUACCUGGUA [G15U U60G], the self-cleavage was 0.57.

With GUCCUCUUUCACGUGAGCGUGAAAGAGAGAAGUGAACCAGAGAAACACACGUUGUGGUAUAUUACCUAGUA [C16A G68A], the self-cleavage came to 0.305.
